# According to paper PMC7688916 (2020):
# B1: GvpF fused to NGFP or CGFP (split-GFP) [Halobacterium salinarum PHH1] / GvpA fused to NGFP or CGFP (split-GFP) [Halobacterium salinarum PHH1] (parent complex)
# chain 1: MTENLYTYGIIEQEDLELDVEGVAGAEQVYTVDYKTLSAVVSDIDTTDPERTDEDVEAHNNVLQEVLKHEEERTVVPMSFGMAFKSARTLKGVLRGARRALRSTLNDIEGTVELGVKILGPGDDTVPREEIQENVTDQLADLSINETENDLFTDRLIINKSYLVDFEKRDAFDSAIDDVEAEYDELTIQYTGPWPPYNFVDIHIGAEQQQGGR
# chain 2: MAQPDSSGLAEVLDRVLDKGVVVDVWARVSLVGIEILTVEARVVAASVDTFLHYAEEIAKIEQAELTAGAEAAPEA
# Variants of: B1
# Experiment: split-GFP; in Hfx. volcanii; FN fusion protein used as interaction partner; two biological and three technical replicates; parent: 20; read off a plot
row,response [relative fluorescence],Variant
1,~14,chain 2 MAQPDSSGLAEVLDRVLDKGVVVDVWARVSLVGIEILTVEARVVAASVDTFLHYAEEIAKIEQYELTAGAEAAPEA [chain 2 A64Y]
2,~9,chain 2 MAQPDSSGLAEVLDRVLDKGVVVDVWARVSLVGIEILTVEARVVYASVDTFLHYAEEIAKIEQAELTAGAEAAPEA [chain 2 A45Y]
3,~19,chain 2 MAQPDSSGLAEVLDRVLDKGVVVDVWARVSLVGIEILTVEERVVAASVDTFLHYAEEIAKIEQAELTAGAEAAPEA [chain 2 A41E]
4,~13,chain 2 MAQPDSSGLAEVLARVLDKGVVVDVWARVSLVGIEILTVEARVVAASVDTFLHYAEEIAKIEQAELTAGAEAAPEA [chain 2 D14A]
5,~14,chain 2 MAQPDSSGLAEVLDRVLDKGVVVDVWARVSLVGIEILTVEARVVAASVDTFLHAAEEIAKIEQAELTAGAEAAPEA [chain 2 Y54A]
6,~5.6,chain 2 MAQPDSSGLAEVLDRVLDKGVVVDVWARVSLVVIEILTVEARVVAASVDTFLHYAEEIAKIEQAELTAGAEAAPEA [chain 2 G33V]
7,~5.2,chain 2 MAQPDSSGLAEVLDRVLDKGVVVDVWERVSLVGIEILTVEARVVAASVDTFLHYAEEIAKIEQAELTAGAEAAPEA [chain 2 A27E]
8,~12,chain 2 MAQPDSSGLAEVLDRVLDKGVVVDVWARVSLVGIEILTVEAAVVAASVDTFLHYAEEIAKIEQAELTAGAEAAPEA [chain 2 R42A]
9,~12,chain 2 MAQPDSSGLAEVLDRVLDKGVVVDVWARVSLVGIEILTVEAEVVAASVDTFLHYAEEIAKIEQAELTAGAEAAPEA [chain 2 R42E]
10,~12,chain 2 MAQPDSSGLAEVLDRVLDKGVVVDVWARVSLVGIEILTVEARVVAASVDTFLHYAEAIAKIEQAELTAGAEAAPEA [chain 2 E57A]
11,~11,chain 2 MAQPDSSGLAEVLDRVLDKGVVVDVWARVSLVGIEILTVEARVVAYSVDTFLHYAEEIAKIEQAELTAGAEAAPEA [chain 2 A46Y]
12,~19,chain 2 MAQPDSSGLAEVLDRVLDKGVVVDVWARDSLVGIEILTVEARVVAASVDTFLHYAEEIAKIEQAELTAGAEAAPEA [chain 2 V29D]
13,~16,chain 2 MAQPDSSGLAEVLDRVLDKGVVVDVWARVSLVGIEILTVEARVVAASVDTFLHYAEEIAKAEQAELTAGAEAAPEA [chain 2 I61A]
14,~19,chain 2 MAQPDSSGLAEVLDRVLDKGVVVDVAARVSLVGIEILTVEARVVAASVDTFLHYAEEIAKIEQAELTAGAEAAPEA [chain 2 W26A]
15,~13,chain 2 MAQPDSSGLAEVLDRVADKGVVVDVWARVSLVGIEILTVEARVVAASVDTFLHYAEEIAKIEQAELTAGAEAAPEA [chain 2 L17A]
16,~13,chain 2 MAQPDSSGLAEVLDRVLDKGVVVDVWARVSLVGIEILAVEARVVAASVDTFLHYAEEIAKIEQAELTAGAEAAPEA [chain 2 T38A]
17,~10,chain 2 MAQPASSGLAEVLDRVLDKGVVVDVWARVSLVGIEILTVEARVVAASVDTFLHYAEEIAKIEQAELTAGAEAAPEA [chain 2 D5A]
18,~12,chain 2 MAQPDSSGLAEVLDRVLDKGVVVDVWARVSLVGIEILTVEARVVAASVDTFLAYAEEIAKIEQAELTAGAEAAPEA [chain 2 H53A]
19,~19,chain 2 MAQPDSSGLAEVLDRVLDKGVVVDVWARVSLVGIEILTVEARVVAASVDTFEHYAEEIAKIEQAELTAGAEAAPEA [chain 2 L52E]
20,~9.8,chain 2 MAQPDSSGLAEVLDRVLDAGVVVDVWARVSLVGIEILTVEARVVAASVDTFLHYAEEIAKIEQAELTAGAEAAPEA [chain 2 K19A]
21,~5.4,chain 2 MAQPDSSGLAEVLDRVLDDGVVVDVWARVSLVGIEILTVEARVVAASVDTFLHYAEEIAKIEQAELTAGAEAAPEA [chain 2 K19D]
22,~11,chain 2 MAQPDSSGLAAVLDRVLDKGVVVDVWARVSLVGIEILTVEARVVAASVDTFLHYAEEIAKIEQAELTAGAEAAPEA [chain 2 E11A]
23,~5.3,chain 2 MAQPDSSGLAEVLDAVLDKGVVVDVWARVSLVGIEILTVEARVVAASVDTFLHYAEEIAKIEQAELTAGAEAAPEA [chain 2 R15A]
24,~13,chain 2 MAQPDSSGLAEVLDRVLDKGVVVDVWARVSLVGIEILTVEARVVAASVDTFLHYAEEIAKIEQAALTAGAEAAPEA [chain 2 E65A]
